Experimental findings from US20210403542A1 (BIOARCTIC, published 2021) are described below.

In assay [1] the target is T1, human α-synuclein protofibril (human, UniProt P37840 1-140). The assay can be described thus: inhibition ELISA.
Assay [2] concerns the target T1, human α-synuclein protofibril. The assay can be described thus: SPR, Biacore 8K; ratio of KD values.
Source text: (§1) Due to feasibility issues caused by the complexity of the target antigen in combination with pronounced avidity dependence of the antibodies, different assay set-ups were used to assess α-synuclein protofibril and monomer binding, respectively.
Assay [3] has the same target. Description: inhibition ELISA; protofibril concentration as monomer equivalents.
Assay [4] shares this target. Description: SPR, Biacore 8K; PF coated on chip, antibody injected, single cycle kinetics.
Source text: as §1
Another assay addresses T2, Aβ-protofibril (UniProt P05067 672-713).
T2 construct: also called Aβ-protofibrils
The assay can be described thus: inhibition ELISA; concentration of Aβ-protofibril varied against BAN0805 (hu47-IgG4).

For another assay, the target named is β-synuclein monomer (UniProt Q16143 1-134). The assay can be described thus: inhibition ELISA; concentration of β-synuclein monomer varied against BAN0805 (hu47-IgG4).
The target in the next assay is γ-synuclein monomer (UniProt O76070 1-127). Description: inhibition ELISA; concentration of γ-synuclein monomer varied against BAN0805 (hu47-IgG4).
A further assay addresses α-synuclein monomer (human, UniProt P37840 1-140). The assay can be described thus: SPR, Biacore 8K; antibody captured by anti-human antibody, monomer injected, single cycle kinetics.

β-synuclein monomer, sequence (Q16143 whole entry): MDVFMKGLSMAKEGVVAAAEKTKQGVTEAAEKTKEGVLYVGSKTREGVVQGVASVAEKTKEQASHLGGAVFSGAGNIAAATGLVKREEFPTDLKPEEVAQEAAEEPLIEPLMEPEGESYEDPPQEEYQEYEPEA
γ-synuclein monomer, sequence (O76070 whole entry): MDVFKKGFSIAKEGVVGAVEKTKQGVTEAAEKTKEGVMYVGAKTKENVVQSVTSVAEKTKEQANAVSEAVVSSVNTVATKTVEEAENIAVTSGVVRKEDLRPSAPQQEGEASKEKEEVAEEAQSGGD
Source text for α-synuclein monomer: as §1

B1: BAN0805 (antibody, human IgG4 S228P, kappa, V domains shown)
VH: QVQLQESGPGLVKPSETLSLTCTVSGFSLTSYGVHWIRQPPGKGLEWIGVIWRGGSTDYSAAFMSRLTISKDTSKNQVSLKLSSVTAADTAVYYCAKLLRSVGGFADWGQGTMVTVSS
VL: DIVMTQSPLSLPVTPGEPASISCRSSQTIVHNNGNTYLEWYLQKPGQSPQLLIYKVSNRFSGVPDRFSGSGSGTDFTLKISRVEAEDVGVYYCFQGSHVPFTFGQGTKLEIKR
notes: Humanized variant of mAb47, human IgG4 (pXC-IgG4Pro(deltaK)) / kappa; also called hu47-IgG4
In the case of B1, the “selectivity for α-synuclein protofibril versus monomer (IC50 monomer / IC50 PF)” value in assay [1] came out at 910 fold. Also, the “selectivity PF vs. monomeric α-synuclein (fold)” value in assay [2] came out at 110000 fold. The IC50 in assay [3] amounted to 2.2 nM. The figures for the Kd (in assay [4]; with α-synuclein monomer) were 0.0185 nM and 2190 nM, respectively. Besides, the binding result with Aβ-protofibril is recorded as “no binding”; with β-synuclein monomer it was “no binding (tested: last point just above the 10000 nM tick)”; in the assay with γ-synuclein monomer it was “no binding (tested: last point just above the 10000 nM tick)”.
